Laboratory results reported in patent US20240116985A1 (published 2024).
Starred links: 1 amine or outer side, 2 acyl side, 3 side chain; linkers in the order of their positions; H or OH if unused. Positions of bridges follow the written chain, without caps; N, C: chain ends. Non-standard residues stand in square brackets, D forms with d. Primed or numbered codes have the meaning given here. B5(29) = 2-amino-2-(pent-4-en-1-yl)hept-6-enoic acid (2,2-bis(4-pentenyl)glycine), stitching residue bearing both staples, C=CCCCC(CCCC=C)(N[*:1])C(=O)[*:2]; PyrS2″ = (S)-3-amino-1-((pent-4-en-1-yloxy)carbonyl)pyrrolidine-3-carboxylic acid (stapling residue), C=CCCCOC(=O)N1CC[C@@](N[*:1])(C(=O)[*:2])C1; B5(16) = 2-amino-2-(pent-4-en-1-yl)hept-6-enoic acid = 2,2-bis(4-pentenyl)glycine (stitching residue), C=CCCCC(CCCC=C)(N[*:1])C(=O)[*:2]; B5(4) = 2,2-bis(4-pentenyl)glycine = 2-amino-2-(pent-4-en-1-yl)hept-6-enoic acid (stitching residue), C=CCCCC(CCCC=C)(N[*:1])C(=O)[*:2]; B5(5) = 2,2-bis(4-pentenyl)glycine, 2-amino-2-(pent-4-en-1-yl)hept-6-enoic acid (stitching residue), C=CCCCC(CCCC=C)(N[*:1])C(=O)[*:2]; TfeGA = (S)-2-amino-3-((carboxymethyl)(2,2,2-trifluoroethyl)amino)propanoic acid, O=C([C@H](CN(CC(=O)[*:3])CC(F)(F)F)N[*:1])[*:2]; PyrS2 = (S)-3-amino-1-((pent-4-en-1-yloxy)carbonyl)pyrrolidine-3-carboxylic acid, C=CCCCOC(=O)N1CC[C@@](N[*:1])(C(=O)[*:2])C1; B5(19) = 2-amino-2-(pent-4-en-1-yl)hept-6-enoic acid (bis(4-pentenyl)glycine), C=CCCCC(CCCC=C)(N[*:1])C(=O)[*:2]; B5(3) = 2,2-bis(4-pentenyl)glycine (stitching residue), C=CCCCC(CCCC=C)(N[*:1])C(=O)[*:2]; AspSH = (S)-2-amino-4-mercapto-4-oxobutanoic acid, O=C(C[C@H](N[*:1])C(=O)[*:2])S[*:3]; B5 = 2-amino-2-(pent-4-en-1-yl)hept-6-enoic acid, C=CCCCC(CCCC=C)(N[*:1])C(=O)[*:2]; AcLys″ = N6-acetyl-lysine, CC(=O)NCCCC[C@H](N[*:1])C(=O)[*:2]; Phe(F5) = N[C@@H](Cc1c(F)c(F)c(F)c(F)c1F)C(=O)O; Phe(3-CONH2) = NC(=O)c1cccc(C[C@H](N)C(=O)O)c1; Phe(2-CF3) = N[C@@H](Cc1ccccc1C(F)(F)F)C(=O)O; Phe(2-CONH2) = NC(=O)c1ccccc1C[C@H](N)C(=O)O; Phe(2-Cl) = N[C@@H](Cc1ccccc1Cl)C(=O)O; hLeu(5-Me) = CC(C)(C)CC[C@H](N)C(=O)O; Ala(cPent) = N[C@@H](CC1CCCC1)C(=O)O; Bta = N[C@@H](Cc1csc2ccccc12)C(=O)O; hTyr = N[C@@H](CCc1ccc(O)cc1)C(=O)O; αAllylPro = C=CC[C@@]1(C(=O)O)CCCN1; tBuAla = CC(C)(C)C[C@H](N)C(=O)O; 3Thi = N[C@@H](Cc1ccsc1)C(=O)O; Cha = N[C@@H](CC1CCCCC1)C(=O)O; S8 = C=CCCCCCC[C@](C)(N)C(=O)O; PyrS2(4) = not defined here; TfeGA″ = not defined here; hSer = N[C@@H](CCO)C(=O)O; Nle = CCCC[C@H](N)C(=O)O

T1: full-length beta-Catenin (Uniprot ID P35222) (Homo sapiens (Human), UniProt P35222 2-781)
T1 construct: No tag is stated for the FP assay; also called bCat; B-Catenin
T1 sequence: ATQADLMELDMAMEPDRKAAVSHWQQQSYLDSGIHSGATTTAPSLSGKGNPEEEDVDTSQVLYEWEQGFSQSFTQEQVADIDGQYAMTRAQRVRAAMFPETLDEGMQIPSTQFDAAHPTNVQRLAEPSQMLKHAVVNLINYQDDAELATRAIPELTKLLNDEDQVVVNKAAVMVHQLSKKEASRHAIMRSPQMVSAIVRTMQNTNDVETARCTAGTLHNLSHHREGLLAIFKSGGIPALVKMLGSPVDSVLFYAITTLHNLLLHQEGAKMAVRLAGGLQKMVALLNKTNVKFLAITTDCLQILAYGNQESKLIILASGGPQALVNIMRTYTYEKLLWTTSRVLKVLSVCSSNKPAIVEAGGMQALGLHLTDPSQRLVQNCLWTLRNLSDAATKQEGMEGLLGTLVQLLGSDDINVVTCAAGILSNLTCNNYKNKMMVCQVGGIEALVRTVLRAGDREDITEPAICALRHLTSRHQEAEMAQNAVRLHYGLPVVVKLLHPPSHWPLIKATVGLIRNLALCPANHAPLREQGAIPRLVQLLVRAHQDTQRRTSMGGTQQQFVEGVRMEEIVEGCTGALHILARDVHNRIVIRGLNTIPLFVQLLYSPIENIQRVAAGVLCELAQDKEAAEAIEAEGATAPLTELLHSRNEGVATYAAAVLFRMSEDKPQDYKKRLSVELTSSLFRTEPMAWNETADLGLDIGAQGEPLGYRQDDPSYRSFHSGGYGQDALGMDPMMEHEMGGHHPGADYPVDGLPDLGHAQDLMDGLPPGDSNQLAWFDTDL

T2: B-cat-Halo (UniProt P35222 2-781)
T2 sequence (looked up): T1 sequence

T3: B-cat-Halo (UniProt P35222 1-781)
T3 sequence (looked up): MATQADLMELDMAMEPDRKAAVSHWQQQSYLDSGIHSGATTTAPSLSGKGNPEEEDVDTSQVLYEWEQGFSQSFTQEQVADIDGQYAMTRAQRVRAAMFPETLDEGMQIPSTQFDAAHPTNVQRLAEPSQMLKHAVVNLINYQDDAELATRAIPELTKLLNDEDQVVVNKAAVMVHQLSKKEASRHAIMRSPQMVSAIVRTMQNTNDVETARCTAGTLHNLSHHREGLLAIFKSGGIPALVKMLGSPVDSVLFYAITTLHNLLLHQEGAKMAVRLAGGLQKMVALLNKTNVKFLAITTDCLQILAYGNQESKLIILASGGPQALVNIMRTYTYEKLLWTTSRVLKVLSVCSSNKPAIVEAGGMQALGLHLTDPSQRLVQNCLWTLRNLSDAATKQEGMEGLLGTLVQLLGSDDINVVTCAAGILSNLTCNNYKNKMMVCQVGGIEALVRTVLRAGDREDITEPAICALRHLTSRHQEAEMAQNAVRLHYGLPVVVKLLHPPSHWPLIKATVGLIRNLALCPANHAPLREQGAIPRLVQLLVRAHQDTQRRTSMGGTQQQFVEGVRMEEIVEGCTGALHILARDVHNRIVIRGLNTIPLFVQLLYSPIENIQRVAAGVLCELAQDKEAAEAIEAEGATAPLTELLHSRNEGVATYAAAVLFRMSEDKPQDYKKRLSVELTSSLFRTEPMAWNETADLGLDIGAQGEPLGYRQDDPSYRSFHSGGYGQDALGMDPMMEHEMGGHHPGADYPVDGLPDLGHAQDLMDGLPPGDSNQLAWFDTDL

B1: I-1793 (peptide)
peptide: Ac-[αAllylPro]D[tBuAla][B5(19)]DHAAF[hSer][PyrS2][3Thi][Bta]Q-NH2
modifications: staple 1-4, 4-11; not fully specified; printed as Ac-PL3-Asp-Npg-B5-Asp-His-Ala-Ala-Phe-Hse-PyrS2-3Thi-BztA-Gln-NH2
B2: I-1796 (peptide)
peptide: Ac-[αAllylPro]D[tBuAla][B5(3)]DHAAFL[PyrS2″][3Thi][Bta]Q-NH2
modifications: staple 1-4, 4-11; not fully specified; printed as Ac-PL3-Asp-Npg-B5-Asp-His-Ala-Ala-Phe-Leu-PyrS2-3Thi-BztA-Gln-NH2
B3: I-1794 (peptide)
peptide: Ac-[αAllylPro]D[tBuAla][B5(3)]DHAAF[hSer][PyrS2″][3Thi][Bta]Q-NH2
modifications: staple 1-4, 4-11; not fully specified; printed as Ac-PL3-Asp-Npg-B5-Asp-His-Ala-Ala-Phe-Hse-PyrS2-3Thi-BztA-Gln-NH2

Molecular target: T1, full-length beta-Catenin (Uniprot ID …)
Test: fluorescence polarization competition; full-length beta-catenin with 5FAM-TCF4(10-53) probe as competitor
Procedure: The plate was incubated protected from light for 60 minutes at 20° C. prior to read. Reads were performed on a CLARIOstar plate reader (BMG Labtech) in duplicate, and data were fitted to a 1:1 binding model with hill slope using an in-house script. All provided concentrations are final concentrations.

Binder Ac-[αAllylPro]DI[B5(29)]DEAAFN[S8]F[Bta]H-NH2 (staple 1-4, 4-11, Stapled (stitched) peptide composition) [I-472] has an IC50 of 0.062 µM.

Molecular target: T2, B-cat-Halo
Test: cell-based or functional assay

Compared with Ac-[αAllylPro]D[tBuAla][B5(5)]D[TfeGA]AAF[tBuAla][PyrS2″][3Thi][Bta]Q-NH2 (staple 1-4, 4-11) [I-1773], B1 is higher in “NanoBRET Abs IC50” value: 8.6 µM for the first, > 20 µM for the second.

First: Ac-[αAllylPro]D[tBuAla][B5(19)]DYAAF[hSer][PyrS2][3Thi][Bta]Q-NH2 (staple 1-4, 4-11) [I-1783]
Second: Ac-[αAllylPro]D[tBuAla][B5(19)]D[TfeGA]AAF[Nle][PyrS2][3Thi][Bta]Q-NH2 (staple 1-4, 4-11) [I-1776]
The “NanoBRET Abs IC50” value of the first is higher: > 20 µM for the first, 10.5 µM for the second.

Compared with Ac-[αAllylPro]D[Nle][B5(19)]D[TfeGA]AAFL[PyrS2][3Thi][Bta]Q-NH2 (staple 1-4, 4-11) [I-1777], Ac-[αAllylPro]D[tBuAla][B5(19)]D[Phe(F5)]AAF[hSer][PyrS2][3Thi][Bta]Q-NH2 (staple 1-4, 4-11) [I-1791] is higher in “NanoBRET Abs IC50” value: 8.7 µM for the first, > 20 µM for the second.

B2 and Ac-[αAllylPro]D[tBuAla][B5(3)]DHAAFL[PyrS2(4)][3Thi][Bta]Q-NH2 (staple 1-4, 4-11; not fully specified; reading uncertain) [I-1795] cannot be ordered by “NanoBRET Abs IC50” value: > 20 µM for the first, 22.8 µM for the second.

First: Ac-[αAllylPro]D[tBuAla][B5(5)]D[TfeGA″]AAF[Cha][PyrS2(4)][3Thi][Bta]Q-NH2 (staple 1-4, 4-11; not fully specified; reading uncertain) [I-1774]
Second: Ac-[αAllylPro]D[tBuAla][B5(19)]D[hTyr]AAF[hSer][PyrS2][3Thi][Bta]Q-NH2 (staple 1-4, 4-11) [I-1786]
The “NanoBRET Abs IC50” value of the first is lower: 8.9 µM for the first, > 20 µM for the second.

Going from Ac-[αAllylPro]D[hLeu(5-Me)][B5(5)]D[TfeGA]AAFL[PyrS2″][3Thi][Bta]Q-NH2 (staple 1-4, 4-11) [I-1772] to Ac-[αAllylPro]D[tBuAla][B5(19)]D[hTyr]AAFN[PyrS2][3Thi][Bta]Q-NH2 (staple 1-4, 4-11) [I-1785], the “NanoBRET Abs IC50” value rises from 6.8 µM to 42.3 µM (6.2-fold).

Ac-[αAllylPro]D[tBuAla][B5(19)]DWAAFN[PyrS2][3Thi][Bta]Q-NH2 (staple 1-4, 4-11) [I-1788] and Ac-[αAllylPro]D[tBuAla][B5(19)]D[Phe(F5)]AAFN[PyrS2][3Thi][Bta]Q-NH2 (staple 1-4, 4-11) [I-1790] are within 1.5-fold of each other in “NanoBRET Abs IC50” value: 33.9 µM for the first, 34.4 µM for the second.

In the case of B3, the “NanoBRET Abs IC50” value is reported as 37.7 µM.

Molecular target: T3, B-cat-Halo
Test: cell-based or functional assay

Ac-[αAllylPro]D[tBuAla][B5(4)]D[TfeGA]AAFL[PyrS2″][Phe(2-CF3)][Bta]Q-NH2 (staple 1-4, 4-11; also: -CH=CH- in each staple reduced to -CH2-CH2-) [I-1714] and Ac-[αAllylPro]D[tBuAla][B5(4)]D[TfeGA]AAFL[PyrS2″][3Thi][Bta]N-NH2 (staple 1-4, 4-11; also: -CH=CH- in each staple reduced to -CH2-CH2-) [I-1715] are within 1.5-fold of each other in “NanoBRET Abs IC50” value: 28.6 µM for the first, 38.4 µM for the second.

Compared with Ac-[αAllylPro]D[tBuAla][B5(16)]D[TfeGA]AAFL[PyrS2″][3Thi][Bta]N-NH2 (staple 1-4, 4-11) [I-1705], Ac-[αAllylPro]D[tBuAla][B5(4)]D[TfeGA]AAFL[PyrS2″][3Thi][Bta]T-NH2 (staple 1-4, 4-11; also: -CH=CH- in each staple reduced to -CH2-CH2-) [I-1716] is 7.5-fold higher in “NanoBRET Abs IC50” value: 2.9 µM for the first, 21.7 µM for the second.

Ac-[αAllylPro]D[tBuAla][B5(4)]D[TfeGA]AAFL[PyrS2″]F[Bta]Q-NH2 (staple 1-4, 4-11; also: -CH=CH- in each staple reduced to -CH2-CH2-) [I-1711] and Ac-[αAllylPro][AspSH][tBuAla][B5]DDAAFN[PyrS2][Phe(2-Cl)][Bta]Q-NH2 (staple 1-4, 4-11; not fully specified) [I-1721] cannot be ordered by “NanoBRET Abs IC50” value: 33.3 µM for the first, > 20 µM for the second.

Going from Ac-[αAllylPro]D[tBuAla][B5(4)]D[TfeGA]AAFL[PyrS2″][Ala(cPent)][Bta]Q-NH2 (staple 1-4, 4-11; also: -CH=CH- in each staple reduced to -CH2-CH2-) [I-1713] to Ac-[αAllylPro]D[tBuAla][B5(4)]D[TfeGA]AAFL[PyrS2″][3Thi][Bta][Phe(2-CONH2)]-NH2 (staple 1-4, 4-11) [I-1707], the “NanoBRET Abs IC50” value falls from > 20 µM to 6.1 µM.

Going from Ac-[αAllylPro]D[tBuAla][B5(4)]D[TfeGA]AAFL[PyrS2″][3Thi][Bta][Phe(3-CONH2)]-NH2 (staple 1-4, 4-11) [I-1708] to Ac-[αAllylPro]D[tBuAla][B5(4)]D[TfeGA]AAFL[PyrS2″][3Thi][Bta][AcLys″]-NH2 (staple 1-4, 4-11; also: -CH=CH- in each staple reduced to -CH2-CH2-) [I-1719], the “NanoBRET Abs IC50” value rises from 11.9 µM to 27.6 µM (2.3-fold).
